B1: Homeobox protein SIX6, residues 134 to 184; numbered along this chain, O95475 (parent)
chain: CFKERTRHLLREWYLQDPYPNPSKKRELAQATGLTPTQVGNWFKNRRQRDR

Variants of: B1
Experiment: abundance fitness (aPCA) (normalised: wild type 0, dead -1); higher = more abundant; growth selection in yeast, the domain comes from the species named
Details: Homo sapiens

Abundance fitness, by site and new letter:
Q38: V -0.87 | L -0.826 | R -0.868 | E -0.301 | F -0.741 | Y -0.77 | D -0.626 | M -0.442 | P -0.9 | W -0.742 | K -0.608 | T -0.676 | I -0.702 | H -0.878 | S -0.841 | A -0.269 | N -0.467 | C -0.798 | G -0.728
K25: N -0.48 | W -0.519 | H -0.031 | M -0.126 | T -0.074 | G -0.789 | I 0.118 | S -0.423 | R -0.098 | P -0.648 | Y -0.338 | L 0.049 | F -0.272 | A -0.334 | Q 0.158 | D -0.741
L34: W -0.548 | V -0.861 | H -0.896 | K -0.722 | Y -0.587 | S -0.707 | Q -0.731 | I -0.638 | F -0.725 | G -0.742 | M -0.044 | N -0.826 | C -0.806 | T -0.669 | R -0.719 | E -0.624 | P -0.747 | D -0.936 | A -0.911
R26: S -0.182 | K -0.024 | H -0.121 | F -0.085 | T -0.429 | N 0.069 | L 0.039 | W -0.475 | Y -0.378 | P -0.836 | C 0.055 | Q 0.264 | V 0.055 | E 0.037 | I -0.382
A31: M -0.008 | L 0.068 | F 0.262 | I 0.253 | S -0.292 | Q -0.001 | R -0.185 | N -0.098 | C -0.287 | K -0.364 | W -0.494 | E -0.14 | P -0.782 | V -0.151 | T -0.045 | H -0.514 | G -0.65 | Y -0.36 | D -0.888
G33: I -0.936 | F -0.946 | S -0.598 | H -0.61 | L -0.735 | N -0.499 | Q -0.514 | M -0.555 | Y -0.741 | A -0.712 | D -0.629 | K -0.679 | T -0.727 | P -0.848 | E -0.722 | R -0.738 | W -0.853 | C -0.757
E27: T -0.513 | K -0.71 | G -0.805 | R -0.437 | H -0.773 | Q -0.758 | A -0.207 | C -0.441 | M -0.696 | P -0.845 | S -0.679 | D -0.194 | F -0.318 | L -0.483 | W -0.231 | N -0.683 | V -0.731
N41: P -1 | I -0.642 | L -0.278 | H -0.392 | R 0.155 | S -0.342 | Q -0.124 | E -0.121 | Y -0.995 | K 0.351 | C -0.158 | A -0.511 | T -0.259 | V -0.269 | W -0.754 | G -0.627 | M -0.38
L28: V -0.378 | R -0.765 | Q -0.88 | W -0.788 | G -0.883 | P -0.958 | E -0.808 | I 0.064 | S -0.981 | C -0.79 | F -0.442 | M -0.04 | Y -0.124 | H -0.903
T35: M -0.703 | R -0.813 | I -0.885 | F -0.773 | Y -0.953 | W -0.822 | N -0.581 | D -0.663 | P -0.877 | L -0.733 | G -0.886 | E -0.399 | S -0.128
